From patent US5891697A, “Monoterpene synthases from common sage (Salvia officinalis)” (Washington State University Research Foundation, priority 1997, dated 1999)

Columns and labels:
[1] = molecular target: T1, native (+)-bornyl diphosphate synthase from sage (Salvia officinalis) (Salvia officinalis, UniProt O81192); conditions: read-out: Km (geranyl diphosphate), literature value; native enzyme; Croteau et al. 1989, 1990; cited from earlier work
T1 construct: for the corresponding native enzymes

[2] = molecular target: native 1,8-cineole synthase from sage (Salvia officinalis) (Salvia officinalis, UniProt O81191); conditions: read-out: Km (geranyl diphosphate), literature value; native enzyme; Croteau et al., Arch. Biochem. Biophys. 309:184-192, 1994; cited from earlier work
[3] = substrate: CC(C)=CCC/C(C)=C/COP(=O)(O)OP(=O)(O)O; test: cells, lysate or membranes named; conditions: other: recombinant SCS; 0.45 to 45 μM [1-3H]geranyl diphosphate, saturating divalent metal ion; likely somewhat high (contaminating phosphatases); pH 6.0; 31.0 °C
[4] = molecular target: the molecule itself; test: calibrated gel permeation chromatography (Superdex S-200); single peak of activity at Mr ~200,000; self-association (homodimer)
[5] = molecular target: the molecule itself; test: gel permeation re-chromatography after thrombin removal of the GST tag; self-association (homodimer)

CC(C)=CCC/C(C)=C/COP(=O)(O)OP(=O)(O)O [geranyl diphosphate]
Km [1]: 2 µM
Km [2]: 1.1 µM

B1: Salvia officinalis 1,8-cineole synthase (SCS), recombinant, clone 3B5, SEQ ID No:4 (Salvia officinalis) (protein)
chain: RRTGGYQPTLWDFSTIQLFDSEYKEEKHLMRAAGMIAQVNMLLQEEVDSIQRLELIDDLRRLGISCHFDREIVEILNSKYYTNNEIDESDLYSTALRFKLLRQYDFSVSQEVFDCFKNDKGTDFKPSLVDDTRGLLQLYEASFLSAQGEETLHLARDFATKFLHKRVLVDKDINLLSSIERALELPTHWRVQMPNARSFIDAYKRRPDMNPTVLELAKLDFNMVQAQFQQELKEASRWWNSTGLVHELPFVRDRIVECYYWTTGVVERREHGYERIMLTKINALVTTIDDVFDIYGTLEELQLFTTAIQRWDIESMKQLPPYMQICYLALFNFVNEMAYDTLRDKGFNSTPYLRKAWVDLVESYLIEAKWYYMGHKPSLEEYMKNSWISIGGIPILSHLFFRLTDSIEEEDAESMHKYHDIVRASCTILRLADDMGTSLDEVERGDVPKSVQCYMNEKNASEEEAREHVRSLIDQTWKMMNKEMMTSSFSKYFVQVSANLARMAQWIYQHESDGFGMQHSLVNKMLRGLLFDRYE
Km [3]: 7.0 µM

B2: pGEX fusion form of SBS (glutathione-S-transferase fusion of the sage (+)-bornyl diphosphate synthase preprotein) (enzyme)
chain: MSIISMNVSILSKPLNCLHNLERRPSKALLVPCTAPTARLRASCSSKLQEAHQIRRSGNYQPALWDSNYIQSLNTPYTEERHLDRKAELIVQVRILLKEKMEPVQQLELIHDLKYLGLSDFFQDEIKEILGVIYNEHKCFHNNEVEKMDLYFTALGFRLLRQHGFNISQDVFNCFKNEKGIDFKASLAQDTKGMLQLYEASFLLRKGEDTLELAREFATKCLQKKLDEGGNEIDENLLLWIRHSLDLPLHWRIQSVEARWFIDAYARRPDMNPLIFELAKLNFNIIQATHQQELKDLSRWWSRLCFPEKLPFVRDRLVESFFWAVGMFEPHQHGYQRKMAATIIVLATVIDDIYDVYGTLDELELFTDTFKRWDTESITRLPYYMQLCYWGVHNYISDAAYDILKEHGFFCLQYLRKSVVDLVEAYFHEAKWYHSGYTPSLDEYLNIAKISVASPAIISPTYFTFANASHDTAVIDSLYQYHDILCLAGIILRLPDDLGTSYFELARGDVPKTIQCYMKETNASEEEAVEHVKFLIREAWKDMNTAIAAGYPFPDGMVAGAANIGRVAQFIYLHGDGFGVQHSKTYEHIAGLLFEPYA
binding result [4]: binds

B3: SBS protein after thrombin removal of the glutathione-S-transferase fusion tag ((+)-bornyl diphosphate synthase preprotein) (enzyme)
chain: B2 chain
binding result [5]: binds
